Laboratory results from paper PMC10015101.

Experiments:
[1] = biological target: SARS-CoV-1 soluble spike ectodomain, stabilised (2P, GSAS linker, T4 fibritin trimerization motif) (SARS-CoV-1 | bacteriophage T4) (UniProt P59594); assay: SEC
[2] = biological target: Rf1 soluble spike ectodomain, stabilised (2P, GSAS linker, T4 fibritin trimerization motif) (bat sarbecovirus Rf1 | bacteriophage T4) (UniProt Q0QDZ0); assay: SEC

Row | Substance | stoichiometry N [1] | stoichiometry N [2]
1 | SARS-CoV-1 soluble spike ectodomain, stabilised (2P, GSAS linker, T4 fibritin trimerization motif) (from UniProt P59594 14-1190) (domain or fragment) | 3 | –
2 | Rf1 soluble spike ectodomain, stabilised (2P, GSAS linker, T4 fibritin trimerization motif) (from UniProt Q0QDZ0 1-1176) (domain or fragment) | – | 3
